Results from the supplement of paper PMC9170038.

System: MS2 coat protein
Test: apparent KD of MS2 coat protein; higher = weaker reporter binding
Conditions: Eterna round: R107; input ligand: theophylline 20 uM
Method: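 RNA-MaP round R107: designed RNA switches with theophylline, tryptophan, arginine or FMN aptamers are transcribed on-chip within common flanks. They are titrated with SNAP-549-labelled MS2 coat protein in RNA-MaP buffer (100 mM Tris pH 7.5, 80 mM KCl, 4 mM MgCl2), without ligand or with the indicated ligand. Median apparent KD per design.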

Row | Sequence | apparent KD of MS2 coat protein
1 | CUCAUCCACGCGGCCGCCACUAUAUUGUGGUGUGAAUGUGACGUAUUACAUGAGGAUCACCCAUGUAGGACCGGGCGUGGAUGAG [#07 Exclusion Tryptophan B] | 86.2 nM
2 | GGAUAGGACACGGCCGCCACUACCUAGGAUACUAGCAACAUUUGGGUACAUGAGGAUCACCCAUGUAGGACCGGGUGUCCUAUCG | 34.2 nM
3 | CGAGUAAGAACAAUCGAAUAACGGUUUUCGCGAGGACCGGUACGGCCGCCACUCGUGUGAUAUAACACAUGAGGAUCACCCAUGU [3'end-1] | 37.6 nM
4 | GGGUACAUCGCGGCCGCCACUUUUGUAAAUACAUGAGGAUCACCCAUGUCGAUGGAGACAUCGGUGAGGACCGGGUGAUGUACCG | 523 nM
5 | AGUGGUGCAACUGAUACCAGAUUUAUACGAGACAUGAGGAUCACCCAUGUCGAAAGACAAAUCCCUUGGCAGCAGACACGAUCCC [theeternabot_sameState_MS2_Theo_B_25] | 10.4 nM
6 | UGUAACAUGAGGAUCACCCAUGUGAGUGAUACCAGAUUAGUAUUAGUCCCUUGGCAGCACGUUGGGCGAGUGUAUAGUCUAUGCG [Same State - Theophylline A (Freestyle 13)] | 162 nM
7 | ACAUGAGGAUCACCCAUGUAUUCAUCAGAAGGAGCGUGGAAUAACACAGGUAGGUCGCUGAUUAUUUGUUAAAUAAAAUCGUGUA [JR_Nu_SSArginiA_Sub022] | 20.6 nM
8 | UGACAUUGCUCAGAUACCAGACACGAGGAUCACCCGUGUGCCAACAAGUACAAAAUAAAUGUCCCUUGGCAGCUGAGCAAUGUCU [TheoBX 24 #MS2Left #AlternativeMS2 #Theo22] | 16 nM
9 | ACAUUUAACUGAAGGAGCGUGAUAAACAUGAGGAUCACCCAUGUACCACAGAUUCUUAGAUCACAGGUAGGUCGCAGACUAAUGA [JR_ExcArginiB_Sub013] | 13.7 nM

Same assay, conditions: Eterna round: R107; input ligand: theophylline 2 mM

Row | Sequence | apparent KD of MS2 coat protein
10 | CAAUUUAUAUGAAGGAGCGUCGAAAAUGGGUAAACAUGAGGAUCACCCAUGUAAAGGGAACGACAGGUAGGUCGCAUAUGGAUUG [AstromonsSSArgB#10] | 316 nM
11 | AGCCGCGUUCUUUCUUUCUUUCUAGCGGCACGAGGACCGGUACGGCCGCCACUCGCCCACAUGAGGAUCACCCAUGUAGUGGGUG [The One Ring #2] | 23.9 nM
12 | GGGUACAUCGCGGCCGCCACUUGUGUAAAUACAUGAGGAUCACCCAUGUCGAUGGAGACAUCGGCAAGGACCGGGUGAUGUACCG | 146 nM
13 | CGCCACUCGAGUGAUCCUCACGAGUGGCUACGAGGACCGGUACGGCCGCCACUCGAAUUAACAUGAGGAUCACCCAUGUACUCCA [Brourdmod10] | 193 nM
14 | AGCCCGGGAGCGGCCGCCACUGGAGGCUUUGCGCGACAUGAGGAUCACCCAUGUGUGCCCGGCGUUAGGACCGGGCUCGCGUGGU [#1 Same State - Tryptophan B Attempt #21 (HarryS)] | 55.3 nM
15 | CUCAUCCACGCGGCCGCCACUAUAUUGUGGUGUGAAUGUGACGUAUUACAUGAGGAUCACCCAUGUAGGACCGGGCGUGGAUGAG [#07 Exclusion Tryptophan B] | 93.5 nM
16 | GGAUAGGACACGGCCGCCACUACCUAGGAUACUAGCAACAUUUGGGUACAUGAGGAUCACCCAUGUAGGACCGGGUGUCCUAUCG | 28.4 nM
17 | CGAGUAAGAACAAUCGAAUAACGGUUUUCGCGAGGACCGGUACGGCCGCCACUCGUGUGAUAUAACACAUGAGGAUCACCCAUGU [3'end-1] | 34.9 nM
18 | GGGUACAUCGCGGCCGCCACUUUUGUAAAUACAUGAGGAUCACCCAUGUCGAUGGAGACAUCGGUGAGGACCGGGUGAUGUACCG | 721 nM
19 | ACAUGAGGAUCACCCAUGUAUUCAUCAGAAGGAGCGUGGAAUAACACAGGUAGGUCGCUGAUUAUUUGUUAAAUAAAAUCGUGUA [JR_Nu_SSArginiA_Sub022] | 17.1 nM
20 | UGACAUUGCUCAGAUACCAGACACGAGGAUCACCCGUGUGCCAACAAGUACAAAAUAAAUGUCCCUUGGCAGCUGAGCAAUGUCU [TheoBX 24 #MS2Left #AlternativeMS2 #Theo22] | 26.1 nM
21 | ACAUUUAACUGAAGGAGCGUGAUAAACAUGAGGAUCACCCAUGUACCACAGAUUCUUAGAUCACAGGUAGGUCGCAGACUAAUGA [JR_ExcArginiB_Sub013] | 12.6 nM

Same assay, conditions: Eterna round: R107; input ligand: tryptophan 2.4 mM

Row | Sequence | apparent KD of MS2 coat protein
22 | CAAUUUAUAUGAAGGAGCGUCGAAAAUGGGUAAACAUGAGGAUCACCCAUGUAAAGGGAACGACAGGUAGGUCGCAUAUGGAUUG [AstromonsSSArgB#10] | 182 nM
23 | GGGUACAUCGCGGCCGCCACUUGUGUAAAUACAUGAGGAUCACCCAUGUCGAUGGAGACAUCGGCAAGGACCGGGUGAUGUACCG | 15.2 nM
24 | AAACAUUGCUCAGAUACCAGACAUGAGGAUCACCCAUGUACCAAGGUAACCGAAAGGCAUGUCCCUUGGCAGCUGAGCAAUGAAA [MAT - Exclusion Theophlline B - Mod of Eli - D15] | 13 nM
25 | AGCCCGGGAGCGGCCGCCACUGGAGGCUUUGCGCGACAUGAGGAUCACCCAUGUGUGCCCGGCGUUAGGACCGGGCUCGCGUGGU [#1 Same State - Tryptophan B Attempt #21 (HarryS)] | 46.9 nM
26 | AGCAGUACAACAGAUACCAGACUUUUCAUGCCUUUAAUUACAUGAGGAUCACCCAUGUUUGUCCCUUGGCAGCUGUUGUACUGCA [JR_ExcTheophyB_Sub011] | 39.9 nM
27 | GGAUAGGACACGGCCGCCACUACCUAGGAUACUAGCAACAUUUGGGUACAUGAGGAUCACCCAUGUAGGACCGGGUGUCCUAUCG | 124 nM
28 | GGGUACAUCGCGGCCGCCACUUUUGUAAAUACAUGAGGAUCACCCAUGUCGAUGGAGACAUCGGUGAGGACCGGGUGAUGUACCG | 295 nM
29 | AGUGGUGCAACUGAUACCAGAUUUAUACGAGACAUGAGGAUCACCCAUGUCGAAAGACAAAUCCCUUGGCAGCAGACACGAUCCC [theeternabot_sameState_MS2_Theo_B_25] | 9.65 nM
30 | ACAUGAGGAUCACCCAUGUAUUCAUCAGAAGGAGCGUGGAAUAACACAGGUAGGUCGCUGAUUAUUUGUUAAAUAAAAUCGUGUA [JR_Nu_SSArginiA_Sub022] | 18.3 nM
31 | UGACAUUGCUCAGAUACCAGACACGAGGAUCACCCGUGUGCCAACAAGUACAAAAUAAAUGUCCCUUGGCAGCUGAGCAAUGUCU [TheoBX 24 #MS2Left #AlternativeMS2 #Theo22] | 12.2 nM
32 | ACAUUUAACUGAAGGAGCGUGAUAAACAUGAGGAUCACCCAUGUACCACAGAUUCUUAGAUCACAGGUAGGUCGCAGACUAAUGA [JR_ExcArginiB_Sub013] | 12.4 nM
